Assay [1] deals with T1, human GITR expressed on the cell surface (human, UniProt Q9Y5U5 26-241).
T1 sequence: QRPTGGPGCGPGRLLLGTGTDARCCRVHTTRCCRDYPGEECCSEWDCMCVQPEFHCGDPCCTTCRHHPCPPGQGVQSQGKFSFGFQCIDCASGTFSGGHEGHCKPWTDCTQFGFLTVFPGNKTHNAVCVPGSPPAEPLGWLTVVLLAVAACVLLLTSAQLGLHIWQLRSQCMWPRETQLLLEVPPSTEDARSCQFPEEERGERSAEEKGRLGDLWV
In words: cell-based or functional assay.

The target of assay [2] is cynomolgus monkey GITR expressed on the cell surface (Macaca fascicularis (cynomolgus monkey)). The assay can be described thus: cell-based or functional assay.
The target in assay [3] is T2, Jurkat/hCD20 cells (human CD20, no GITR; negative control cell line) (human, UniProt P11836 1-297).
T2 construct: whole, on cells; Control cell line without engineered GITR; the only named engineered protein on it is hCD20
T2 sequence (looked up): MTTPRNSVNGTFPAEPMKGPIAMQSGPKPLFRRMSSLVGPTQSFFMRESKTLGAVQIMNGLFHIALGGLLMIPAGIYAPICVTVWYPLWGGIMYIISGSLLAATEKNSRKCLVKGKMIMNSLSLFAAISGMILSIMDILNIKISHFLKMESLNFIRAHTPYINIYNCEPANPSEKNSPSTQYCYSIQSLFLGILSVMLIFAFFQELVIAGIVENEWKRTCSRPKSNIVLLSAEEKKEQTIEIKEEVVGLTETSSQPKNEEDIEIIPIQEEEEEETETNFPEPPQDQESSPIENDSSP
The assay can be described thus: flow cytometry on Jurkat/hCD20 cells. The protocol:
(§1) FIG. 5A, FIG. 5B, and FIG. 5C depict cell-surface binding of mAb1 and IgG1 isotype control at a range of concentrations (18 pM to 300 nM) on Jurkat/hCD20 (FIG. 5A), Jurkat/hCD20/hGITR (FIG. 5B), and Jurkat/hCD20/MfGITR (FIG. 5C) cells. Binding was detected using an Alexa647-labeled anti-human IgG by flow cytometry. Fluorescence intensity was plotted as geometric MFI. h, Human; Mf, Macaca fascicularis (cynomolgus monkey).
(§2) Flow cytometry was used to evaluate mAb1 binding to Jurkat/hCD20/hGITR cells and Jurkat/hCD20/MfGITR cells. Jurkat/hCD20 cells were used as a negative control cell line for GITR binding. Cells were added to a 96-well V-bottom plate (2×10⁵ to 4×10⁵ cells/well) and incubated in Fc block solution, followed by successive incubation on ice with primary antibody (mAb1 or IgG1 isotype control) at final concentrations ranging from 18 pM to 300 nM and a secondary antibody (AF647-conjugated anti-human IgG) at 5 μg/mL. […] Data were analyzed with Flow.lo software. For EC₅₀ (effective concentration at 50% activity) determinations, measured geometric MFI values were analyzed using a 4-parameter logistic equation over a 9-point response curve with GraphPad Prism. The fold binding was determined by taking the ratio of the highest MFI on the curve to the MFI of the wells containing secondary antibody only.
In general terms: A flow cytometer gives signals particle by particle.

The target in assay [4] is T1, human GITR expressed on the cell surface. The assay can be described thus: flow cytometry on Jurkat/hCD20/hGITR cells. As for the experimental part: as §1, §2
The target of assay [5] is T3, hGITR.mmH (soluble monomeric recombinant human GITR ectodomain protein) (human).
T3 construct: also called monomeric human GITR
T3 chain: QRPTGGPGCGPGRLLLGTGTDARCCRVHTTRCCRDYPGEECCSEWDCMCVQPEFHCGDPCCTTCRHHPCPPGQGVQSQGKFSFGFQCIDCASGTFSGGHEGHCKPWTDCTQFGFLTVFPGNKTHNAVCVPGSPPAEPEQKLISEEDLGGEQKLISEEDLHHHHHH
In words: SPR Biacore T-200; purified antibody captured on anti-human Fc; 10 nM hGITR.mmH. As for the experimental part: For purified antibodies, Biacore experiments were performed as follows. Using a Biacore T-200 instrument, antibodies were captured for 30 seconds at a flow rate of 8 uL/min on a CM5 anti-humanFc-coupled surface. Approximately 120 RU of each antibody were captured. 10 nM hGITR.mmH (soluble monomeric hGITR, SEQ ID NO: 45) or 5 nM hGITR.mFc (dimeric Macaca fasicularis GITR, SEQ ID NO: 46) were injected over this surface for 5 minutes at a flow rate of 50 uL/min. Dissociation was measured for 10 min. The KD and t_{1/2} were calculated by fitting the double-referenced sensorgrams to a 1:1 binding model.
Background: SPR reads the build-up and loss of mass on a sensor chip optically.

B1: mAb1 (antibody, human IgG1, kappa, V domains shown)
VH: QVQLQESGPGLVKPSETLSLTCIVSGGSISGYFWNWIRQPPGKGLEWIGYIYYSGTTIYNPSLKSRFTISLDTSKNQFSLKLTSVTAADTAVYYCARESYDPSPRYFDHWGQGTLVTVSS
VL: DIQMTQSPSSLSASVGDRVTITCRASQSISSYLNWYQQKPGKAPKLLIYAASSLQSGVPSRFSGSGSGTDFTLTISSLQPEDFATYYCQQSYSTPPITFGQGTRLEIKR
notes: Human IgG1; N101D variant of CompAb1; also called N101D Variant; N101D
B1: in assay [1], the “EC50, ADCC against Jurkat/hCD20/hGITR, Donor 6500V NK cells” value was determined as 0.0122 nM and the “EC50, ADCC against Jurkat/hCD20/hGITR, Donor 6700R NK cells” value came to 0.013 nM. Besides, in assay [2], the “EC50, ADCC against Jurkat/hCD20/MfGITR, Donor 6500V NK cells” value was found to be 0.0108 nM and the “EC50, ADCC against Jurkat/hCD20/MfGITR, Donor 6700R NK cells” value was determined as 0.0121 nM. For the same molecule, the binding result in assay [3] is given as “no binding (tested: 18 pM to 300 nM)”. Moreover, in assay [4], the midpoint of the response, the EC50, lay at 1.96 nM. For the same molecule, in assay [5], the Kd (usually the constant that tells how readily two partners part at equilibrium) is 1.18 nM and the t1/2 is 7.58 min.

Values taken from US20240076396A1 (Regeneron, published 2024).
